Assay results taken from CN112375146A.

Molecular target: FMC63 scFv, His Tag
Test: SPR; FMC63 scFv as analyte at 125, 62.5, 31.25, 15.625, 7.813, 3.906 and 1.953 nM

B1: Y45克隆号抗体 (antibody, V domains shown)
VH: EVKLLESGGGLVQPGGSLKLSCAASGDFRYFQWMSWVRQAPGKGLEWIGEIDNLDSITKYTPSLKDKFIISRDNAKNTLYLQMRKVRSEDTALYYCRAYRYMYDPRWGQGTSVTVSS
VL: DIVLTQSPASLAVSLGQRATISCRASKVSSTSSGYYMHWYQQKPGQPPKLLIYALNNLESGVPARFSGSGSGTDFTLNVHPVEEEDAATYYCQTFYGSELPFGSGTKLEIK
How did the Kd turn out when B1 was run?
The Kd was 1.08 nM.
